Results from patent US20110098449A1.

Molecular target: Human recombinant hepatocyte growth factor activator (HGFA) (human) (UniProt Q04756)
Experiment: cell-based or functional assay

Chain of UniProt Q04756 (Q04756 373-655 limits assumed): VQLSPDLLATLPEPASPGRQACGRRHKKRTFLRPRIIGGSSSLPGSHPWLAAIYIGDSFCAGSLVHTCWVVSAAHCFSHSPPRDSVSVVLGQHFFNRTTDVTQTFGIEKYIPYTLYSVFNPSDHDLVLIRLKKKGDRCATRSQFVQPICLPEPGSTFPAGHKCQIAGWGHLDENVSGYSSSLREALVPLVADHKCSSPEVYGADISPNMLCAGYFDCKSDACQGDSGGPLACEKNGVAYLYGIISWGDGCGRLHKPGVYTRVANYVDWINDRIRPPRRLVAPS

An inhibition of HGFA-mediated 125I-proHGF conversion (SDS-PAGE) of 1 µM was found for “Soluble HAI-1B (hepatocyte growth factor activator inhibitor-1B) (from UniProt O43278 36-465)” in this work.
